Patent EP1237001A1, “SCREENING METHOD” (Takeda Chemical Industries, Ltd., priority 1999, dated 2001)

Target: T1, FM-3 (Homo sapiens, UniProt Q9HB89)
T1 sequence (Q9HB89 24-426 limits assumed): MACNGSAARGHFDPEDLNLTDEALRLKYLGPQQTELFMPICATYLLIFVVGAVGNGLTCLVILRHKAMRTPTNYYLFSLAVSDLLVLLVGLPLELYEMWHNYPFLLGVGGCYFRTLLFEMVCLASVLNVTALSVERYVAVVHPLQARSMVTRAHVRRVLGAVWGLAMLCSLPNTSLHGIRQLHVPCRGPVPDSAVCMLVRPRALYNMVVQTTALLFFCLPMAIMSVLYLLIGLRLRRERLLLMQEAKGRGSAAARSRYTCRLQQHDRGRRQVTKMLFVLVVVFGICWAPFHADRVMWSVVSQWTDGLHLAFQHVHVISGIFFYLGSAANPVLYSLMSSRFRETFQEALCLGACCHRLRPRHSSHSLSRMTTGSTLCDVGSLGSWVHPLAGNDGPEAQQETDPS
Assay: not given
Settings: labeled ligand; cells confirmed to express FM-3 on the cell membrane; Tan et al., Genomics 52, 223-229, 1998; cited from earlier work

Row | Substance | binding with cells expressing FM-3
1 | Neurotensin: labeled Neurotensin, peptide ligand of the Neurotensin receptor | did not bind

Target: T2, FM-3 (Homo sapiens, UniProt Q9HB89)
T2 sequence (Q9HB89 1-426): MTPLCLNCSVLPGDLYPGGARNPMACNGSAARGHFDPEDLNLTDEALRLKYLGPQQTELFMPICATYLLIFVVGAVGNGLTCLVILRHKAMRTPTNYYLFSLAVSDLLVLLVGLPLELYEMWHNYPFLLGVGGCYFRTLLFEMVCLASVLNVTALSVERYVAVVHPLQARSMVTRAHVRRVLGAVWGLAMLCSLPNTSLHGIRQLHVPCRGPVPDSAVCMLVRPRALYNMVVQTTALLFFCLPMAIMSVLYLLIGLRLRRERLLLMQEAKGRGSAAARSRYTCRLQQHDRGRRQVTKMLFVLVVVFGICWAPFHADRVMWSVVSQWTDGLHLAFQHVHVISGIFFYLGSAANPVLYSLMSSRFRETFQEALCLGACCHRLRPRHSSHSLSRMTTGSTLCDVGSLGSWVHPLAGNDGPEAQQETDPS
Assay: not given
Settings: free intracellular calcium ion release measured as an index; Tan et al.; cited from earlier work

Row | Substance | activation of FM-3
2 | VIP: vasoactive intestinal peptide, examined for activation of FM-3 | not detected
3 | calcitonin: peptide examined for activation of FM-3 | not detected
4 | endothelin | not detected
5 | galanin: peptide examined for activation of FM-3 | not detected
6 | growth hormone releasing hormone: peptide examined for activation of FM-3 | not detected
7 | somatostatin: peptide examined for activation of FM-3 | not detected
8 | thyrotropin releasing hormone | not detected

Target: T1, FM-3
Assay: site sensor assay of cell-stimulating activity (extracellular acidification rate)
Type: cell-based
Parameters: expressed in transfected cells
Settings: FM-3-expressing CHO cells versus mock CHO cells; exposure for 7 minutes and 2 seconds; 3 cycles before exposure set as 100 %; Fig. 1
Description: Pig Neuromedin U-8 at the concentration indicated in FIG. 1 was added to FM-3-expressing CHO cells (●) and mock CHO cells (○) for 7 minutes and 2 seconds in the site sensor assay. The maximum value of acidification rate in the reaction was plotted.
FM-3-expressing CHO cells and mock CHO cells, which were cultured in a cell-cultured container, were digested with trypsin and dissociated. The numbers of cells are counted. Then, the cells were inoculated in the capsules for site sensor (2.7 x 10^5 cells/capsule). After incubating them overnight, the capsules containing the cells were transferred to the sensor chamber for measurement, and then mounted to the workstation of the site sensor. The portion containing the cells was refluxed with low-buffered RMPI medium supplemented with 0.1% bovine serum albumin, and it was left still until the acidification rate became stable. The measurement of the acidification rate was made during pumping cycle of ON for 80 seconds and OFF for 40 seconds(2 minutes to one cycle). A rate of change in extracellular pH from 8 to 30 seconds after the pumping off was calculated as an acidification rate with the site sensor.
Pig Neuromedin-8 (BACHEM, H-5505, SEQ ID NO:5) was dissolved in distilled water at the concentration of 10mM, and then the gradually diluted solutions were prepared with low buffered RPMI medium containing 0.1% BSA. […]

Row | Substance | cell-stimulating activity (acidification rate)
9 | Pig Neuromedin-8: pig Neuromedin U-8, peptide of 8 amino acid residues, BACHEM, H-5505, SEQ ID NO:5 | detected in a does-dependent manner and specific to FM-3-expressing CHO cells
